Substitutions are numbered along the chain they refer to.
Tests used:
HrAgo1 [1] = molecular target: T1, HrAgo1 (Candidatus Harpocratesius repetitus …, UniProt A0AAT8XUE3 1-817); test: cryo-EM structure; 5 mM MgCl2; smFRET: 50 mM Tris-HCl pH 8.0, 500 mM NaCl (50 mM for EfPiwi), 1 mM Trolox, glucose oxidase/catalase, 22 C; cryo-EM: 5 mM HEPES pH 7.5, 250 mM KCl, 5 mM MgCl2; conditions: protein: recombinant; tags: His-MBP removed by TEV; single strand; only 6 nt modelled
T1 sequence: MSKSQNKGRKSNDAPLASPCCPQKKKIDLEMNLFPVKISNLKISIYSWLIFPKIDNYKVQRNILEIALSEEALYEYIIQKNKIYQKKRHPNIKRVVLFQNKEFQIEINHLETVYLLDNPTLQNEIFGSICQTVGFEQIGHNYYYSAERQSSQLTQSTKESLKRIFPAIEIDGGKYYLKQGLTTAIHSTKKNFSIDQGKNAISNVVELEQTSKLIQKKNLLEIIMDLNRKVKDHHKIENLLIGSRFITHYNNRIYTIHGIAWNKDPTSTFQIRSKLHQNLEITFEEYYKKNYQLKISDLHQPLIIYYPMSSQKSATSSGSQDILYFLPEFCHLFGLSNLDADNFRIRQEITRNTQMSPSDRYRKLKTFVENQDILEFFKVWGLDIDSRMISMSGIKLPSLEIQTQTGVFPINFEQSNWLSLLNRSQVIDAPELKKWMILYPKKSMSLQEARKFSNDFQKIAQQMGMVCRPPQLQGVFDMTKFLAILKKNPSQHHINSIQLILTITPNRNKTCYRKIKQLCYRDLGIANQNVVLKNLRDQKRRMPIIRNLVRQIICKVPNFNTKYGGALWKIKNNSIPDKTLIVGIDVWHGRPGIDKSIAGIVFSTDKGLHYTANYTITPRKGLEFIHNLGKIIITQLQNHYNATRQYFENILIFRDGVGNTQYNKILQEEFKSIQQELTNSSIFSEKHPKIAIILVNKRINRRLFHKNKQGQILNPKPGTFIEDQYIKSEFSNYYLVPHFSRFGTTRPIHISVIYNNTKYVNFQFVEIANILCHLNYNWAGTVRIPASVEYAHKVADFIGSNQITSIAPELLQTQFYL

HrAgo1 [2] = molecular target: T1, HrAgo1; test: single-molecule FRET; 500 mM NaCl; majority dwell > 200 s, plus transient sub-population; smFRET: 50 mM Tris-HCl pH 8.0, 500 mM NaCl (50 mM for EfPiwi), 1 mM Trolox, glucose oxidase/catalase, 22 C; cryo-EM: 5 mM HEPES pH 7.5, 250 mM KCl, 5 mM MgCl2; conditions: protein: recombinant, tags: His-MBP removed by TEV, label: Cy5 guide, Cy3 target, 3' biotin target
HrAgo1 [3] = molecular target: T1, HrAgo1; test: single-molecule FRET; 500 mM NaCl; stable binding, dwell > 200 s; smFRET: 50 mM Tris-HCl pH 8.0, 500 mM NaCl (50 mM for EfPiwi), 1 mM Trolox, glucose oxidase/catalase, 22 C; cryo-EM: 5 mM HEPES pH 7.5, 250 mM KCl, 5 mM MgCl2; conditions: protein: recombinant; tags: His-MBP removed by TEV; label: Cy5 guide, Cy3 target, 3' biotin target; guide nt 2-16 pair

B1: let-7a guide RNA (cryo-EM) (ssRNA)
RNA: UGAGGUAGUAGGUUGUAUAGU
modifications: 5' phosphate
Question: Does B1 bind (HrAgo1 [1])?
Answer: Result: binds

B2: guide N6 / target N6 (dsRNA)
RNA 1: UGAGGUAUUUUUUUUUUUUUUU
RNA 2: UUUUUUUUUUUUUUUUUUUCUACCUCUUUUUUUUUUUUUUUUUUUUUUUUUUUUUUU
modifications: guide 5' phosphate; 5-LC-N-U at guide nt 9 and target nt 11
Question: Does B2 bind (HrAgo1 [2]; guide nt 2-7 pair)?
Answer: Result: binds

B3: guide N8 / target N8 (dsRNA)
RNA 1: UGAGGUAGUUUUUUUUUUUUUU
RNA 2: B2 RNA 2 with U19A
modifications: guide 5' phosphate; 5-LC-N-U at guide nt 9 and target nt 11
Question: Does B3 bind (HrAgo1 [2]; guide nt 2-9 pair)?
Answer: Result: binds

B4: guide N15 / target N15 (dsRNA)
RNA 1: UGAGGUAGUAGGUUGUUUUUUU
RNA 2: B2 RNA 2 with U12A, U13C, U14A, U15A, U16C, U17C, U19A
modifications: guide 5' phosphate; 5-LC-N-U at guide nt 9 and target nt 11
Question: Does B4 bind (HrAgo1 [3])?
Answer: Result: binds

From PMC11217426, “RNA-guided RNA silencing by an Asgard archaeal Argonaute”
